According to patent publication US20260042853A1 (REGENTS OF THE UNIVERSITY OF COLORADO A BODY CORPORATE, published 2026):

Target: T1, CCR4-IL2 bispecific immunotoxin
T1 construct: also called CCR4-IL2 IT; CCR4-IL2 immunotoxin
Experiment: flow cytometry, MFI against concentration of biotinylated immunotoxin on CD25+CCR4+ Hut102/6TG cells, nonlinear least squares fit

B1: human CD25 and human CCR4 together on human CD25+CCR4+ T-cell lymphoma cell line Hut 102/6TG (other)
chain 1: ELCDDDPPEIPHATFKAMAYKEGTMLNCECKRGFRRIKSGSLYMLCTGNSSHSSWDNQCQCTSSATRNTTKQVTPQPEEQKERKTTEMQSPMQPVDQASLPGHCREPPPWENEATERIYHFVVGQMVYYQCVQGYRALHRGPAESVCKMTHGKTRWTQPQLICTGEMETSQFPGEEKPQASPEGRPESETSCLVTTTDFQIQTEMAATMETSIFTTEYQVAVAGCVFLLISVLLLSGLTWQRRQRKSRRTI
chain 2: MNPTDIADTTLDESIYSNYYLYESIPKPCTKEGIKAFGELFLPPLYSLVFVFGLLGNSVVVLVLFKYKRLRSMTDVYLLNLAISDLLFVFSLPFWGYYAADQWVFGLGLCKMISWMYLVGFYSGIFFVMLMSIDRYLAIVHAVFSLRARTLTYGVITSLATWSVAVFASLPGFLFSTCYTERNHTYCKTKYSLNSTTWKVLSSLEINILGLVIPLGIMLFCYSMIIRTLQHCKNEKKNKAVKMIFAVVVLFLGFWTPYNIVLFLETLVELEVLQDCTFERYLDYAIQATETLAFVHCCLNPIIYFFLGEKFRKYILQLFKTCRGLFVLCQYCGLLQIYSADTPSSSYTQSTMDHDLHDAL
notes: whole, on cells; Not a complex: two separate receptors on the same cell; also called human CD25+CCR4+ Hut102/6TG; CD25+CCR4+ CTCL Hut102/6TG
Kd: 19.7 nM
